Measurements from patent US20130005646A1 (Novo Nordisk, published 2013).
Starred links: 1 amine or outer side, 2 acyl side, 3 side chain; linkers in the order of their positions; H or OH if unused. Positions of bridges follow the written chain, without caps; N, C: chain ends. *: point of attachment. X1 = (S)‑4‑Carboxy‑4‑(19-carboxynonadecanoylamino)butyryl, O=C(O)CCCCCCCCCCCCCCCCCCC(=O)N[C@@H](CCC(=O)*)C(=O)O; C20 diacid = O=C(O)CCCCCCCCCCCCCCCCCCC(=O)*; γGlu = O=C(O)[C@H](CCC(=O)[*:2])N[*:1]

T1: human amylin 3(a) receptor (human calcitonin receptor + RAMP-3) (human, UniProt P30988 25-474; O60896 24-148)
T1 sequence (looked up) 1: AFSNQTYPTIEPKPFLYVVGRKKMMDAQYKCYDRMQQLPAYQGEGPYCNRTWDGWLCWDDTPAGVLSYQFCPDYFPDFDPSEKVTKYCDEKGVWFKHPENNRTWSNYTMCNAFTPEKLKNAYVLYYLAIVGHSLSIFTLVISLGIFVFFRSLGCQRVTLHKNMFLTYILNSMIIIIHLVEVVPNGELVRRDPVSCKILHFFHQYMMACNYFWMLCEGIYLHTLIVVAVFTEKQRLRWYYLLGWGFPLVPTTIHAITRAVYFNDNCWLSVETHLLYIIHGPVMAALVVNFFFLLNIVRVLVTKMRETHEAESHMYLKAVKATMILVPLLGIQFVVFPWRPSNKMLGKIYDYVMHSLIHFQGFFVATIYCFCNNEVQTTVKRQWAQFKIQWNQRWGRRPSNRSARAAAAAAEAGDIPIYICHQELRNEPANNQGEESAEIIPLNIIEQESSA
T1 sequence (looked up) 2: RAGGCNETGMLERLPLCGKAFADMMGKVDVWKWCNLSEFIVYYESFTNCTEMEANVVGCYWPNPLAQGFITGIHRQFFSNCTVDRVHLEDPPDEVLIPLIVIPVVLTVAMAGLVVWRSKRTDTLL

T2: human calcitonin (a) receptor (human, UniProt P30988 25-474)
T2 sequence (looked up): T1 sequence (looked up) 1

T3: rat amylin 3(a) receptor (rat calcitonin(a) receptor + rat RAMP3) (rat, UniProt P32214 25-516; Q9JJ73 23-147)
T3 sequence (looked up) 1: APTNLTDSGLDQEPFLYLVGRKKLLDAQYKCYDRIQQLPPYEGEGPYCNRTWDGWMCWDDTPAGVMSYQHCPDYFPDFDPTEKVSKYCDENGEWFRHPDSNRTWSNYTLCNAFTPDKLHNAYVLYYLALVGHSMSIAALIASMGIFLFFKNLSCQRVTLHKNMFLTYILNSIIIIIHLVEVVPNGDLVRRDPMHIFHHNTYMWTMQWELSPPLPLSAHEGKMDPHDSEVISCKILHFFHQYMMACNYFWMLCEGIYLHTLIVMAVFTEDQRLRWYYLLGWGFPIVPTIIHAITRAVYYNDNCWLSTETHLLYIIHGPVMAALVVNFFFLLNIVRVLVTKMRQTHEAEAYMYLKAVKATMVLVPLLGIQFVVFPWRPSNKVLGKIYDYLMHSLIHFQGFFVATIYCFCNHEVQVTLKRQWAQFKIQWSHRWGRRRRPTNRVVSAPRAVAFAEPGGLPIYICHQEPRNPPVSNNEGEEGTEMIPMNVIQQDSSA
T3 sequence (looked up) 2: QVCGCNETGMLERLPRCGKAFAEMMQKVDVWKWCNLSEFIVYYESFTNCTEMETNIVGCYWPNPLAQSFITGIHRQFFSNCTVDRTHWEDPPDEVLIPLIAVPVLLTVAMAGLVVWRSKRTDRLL

T4: rat calcitonin (a) receptor (rat, UniProt P32214 25-516)
T4 sequence (looked up): T3 sequence (looked up) 1

B1: N-alpha-[(S)-4-Carboxy-4-(19-carboxynonadecanoylamino)butyryl]-[Glu14,His35]-pramlintide (peptide)
peptide: {C20 diacid-γGlu}-KCNTATCATQRLAEFLVHSSNNFGPILPPTNVGSHTY-NH2
modifications: disulfide 2-7
SMILES: CC[C@H](C)[C@H](NC(=O)[C@@H]1CCCN1C(=O)CNC(=O)[C@H](Cc1ccccc1)NC(=O)[C@H](CC(N)=O)NC(=O)[C@H](CC(N)=O)NC(=O)[C@H](CO)NC(=O)[C@H](CO)NC(=O)[C@H](Cc1c[nH]cn1)NC(=O)[C@@H](NC(=O)[C@H](CC(C)C)NC(=O)[C@H](Cc1ccccc1)NC(=O)[C@H](CCC(=O)O)NC(=O)[C@H](C)NC(=O)[C@H](CC(C)C)NC(=O)[C@H](CCCNC(=N)N)NC(=O)[C@H](CCC(N)=O)NC(=O)[C@@H](NC(=O)[C@H](C)NC(=O)[C@@H]1CSSC[C@H](NC(=O)[C@H](CCCCN)NC(=O)CC[C@H](NC(=O)CCCCCCCCCCCCCCCCCCC(=O)O)C(=O)O)C(=O)N[C@@H](CC(N)=O)C(=O)N[C@@H]([C@@H](C)O)C(=O)N[C@@H](C)C(=O)N[C@@H]([C@@H](C)O)C(=O)N1)[C@@H](C)O)C(C)C)C(=O)N[C@@H](CC(C)C)C(=O)N1CCC[C@H]1C(=O)N1CCC[C@H]1C(=O)N[C@H](C(=O)N[C@@H](CC(N)=O)C(=O)N[C@H](C(=O)NCC(=O)N[C@@H](CO)C(=O)N[C@@H](Cc1c[nH]cn1)C(=O)N[C@H](C(=O)N[C@@H](Cc1ccc(O)cc1)C(N)=O)[C@@H](C)O)C(C)C)[C@@H](C)O
B2: N-alpha-[(S)-4-Carboxy-4-(19-carboxynonadecanoylamino)butyryl]-Gly-[His1,Glu14,Arg17,Pro37]-pramlintide (peptide)
peptide: {C20 diacid-γGlu}-GHCNTATCATQRLAEFLRHSSNNFGPILPPTNVGSNTP-NH2
modifications: disulfide 3-8
SMILES: CC[C@H](C)[C@H](NC(=O)[C@@H]1CCCN1C(=O)CNC(=O)[C@H](Cc1ccccc1)NC(=O)[C@H](CC(N)=O)NC(=O)[C@H](CC(N)=O)NC(=O)[C@H](CO)NC(=O)[C@H](CO)NC(=O)[C@H](Cc1c[nH]cn1)NC(=O)[C@H](CCCNC(=N)N)NC(=O)[C@H](CC(C)C)NC(=O)[C@H](Cc1ccccc1)NC(=O)[C@H](CCC(=O)O)NC(=O)[C@H](C)NC(=O)[C@H](CC(C)C)NC(=O)[C@H](CCCNC(=N)N)NC(=O)[C@H](CCC(N)=O)NC(=O)[C@@H](NC(=O)[C@H](C)NC(=O)[C@@H]1CSSC[C@H](NC(=O)[C@H](Cc2c[nH]cn2)NC(=O)CNC(=O)CC[C@H](NC(=O)CCCCCCCCCCCCCCCCCCC(=O)O)C(=O)O)C(=O)N[C@@H](CC(N)=O)C(=O)N[C@@H]([C@@H](C)O)C(=O)N[C@@H](C)C(=O)N[C@@H]([C@@H](C)O)C(=O)N1)[C@@H](C)O)C(=O)N[C@@H](CC(C)C)C(=O)N1CCC[C@H]1C(=O)N1CCC[C@H]1C(=O)N[C@H](C(=O)N[C@@H](CC(N)=O)C(=O)N[C@H](C(=O)NCC(=O)N[C@@H](CO)C(=O)N[C@@H](CC(N)=O)C(=O)N[C@H](C(=O)N1CCC[C@H]1C(N)=O)[C@@H](C)O)C(C)C)[C@@H](C)O
B3: N-alpha-[(S)-4-Carboxy-4-(19-carboxynonadecanoylamino)butyryl]-[His1,Glu14,Arg17,Pro37]-pramlintide (peptide)
peptide: X1-HCNTATCATQRLAEFLRHSSNNFGPILPPTNVGSNTP-NH2
modifications: disulfide 2-7
SMILES: CC[C@H](C)[C@H](NC(=O)[C@@H]1CCCN1C(=O)CNC(=O)[C@H](Cc1ccccc1)NC(=O)[C@H](CC(N)=O)NC(=O)[C@H](CC(N)=O)NC(=O)[C@H](CO)NC(=O)[C@H](CO)NC(=O)[C@H](Cc1c[nH]cn1)NC(=O)[C@H](CCCNC(=N)N)NC(=O)[C@H](CC(C)C)NC(=O)[C@H](Cc1ccccc1)NC(=O)[C@H](CCC(=O)O)NC(=O)[C@H](C)NC(=O)[C@H](CC(C)C)NC(=O)[C@H](CCCNC(=N)N)NC(=O)[C@H](CCC(N)=O)NC(=O)[C@@H](NC(=O)[C@H](C)NC(=O)[C@@H]1CSSC[C@H](NC(=O)[C@H](Cc2c[nH]cn2)NC(=O)CC[C@H](NC(=O)CCCCCCCCCCCCCCCCCCC(=O)O)C(=O)O)C(=O)N[C@@H](CC(N)=O)C(=O)N[C@@H]([C@@H](C)O)C(=O)N[C@@H](C)C(=O)N[C@@H]([C@@H](C)O)C(=O)N1)[C@@H](C)O)C(=O)N[C@@H](CC(C)C)C(=O)N1CCC[C@H]1C(=O)N1CCC[C@H]1C(=O)N[C@H](C(=O)N[C@@H](CC(N)=O)C(=O)N[C@H](C(=O)NCC(=O)N[C@@H](CO)C(=O)N[C@@H](CC(N)=O)C(=O)N[C@H](C(=O)N1CCC[C@H]1C(N)=O)[C@@H](C)O)C(C)C)[C@@H](C)O
B4: N-alpha-[(S)-4-Carboxy-4-(19-carboxynonadecanoylamino)butyryl]-Gly-[Arg1,Glu14,His17,Pro37]-pramlintide (peptide)
peptide: {C20 diacid-γGlu}-GRCNTATCATQRLAEFLHHSSNNFGPILPPTNVGSNTP-NH2
modifications: disulfide 3-8
SMILES: CC[C@H](C)[C@H](NC(=O)[C@@H]1CCCN1C(=O)CNC(=O)[C@H](Cc1ccccc1)NC(=O)[C@H](CC(N)=O)NC(=O)[C@H](CC(N)=O)NC(=O)[C@H](CO)NC(=O)[C@H](CO)NC(=O)[C@H](Cc1c[nH]cn1)NC(=O)[C@H](Cc1c[nH]cn1)NC(=O)[C@H](CC(C)C)NC(=O)[C@H](Cc1ccccc1)NC(=O)[C@H](CCC(=O)O)NC(=O)[C@H](C)NC(=O)[C@H](CC(C)C)NC(=O)[C@H](CCCNC(=N)N)NC(=O)[C@H](CCC(N)=O)NC(=O)[C@@H](NC(=O)[C@H](C)NC(=O)[C@@H]1CSSC[C@H](NC(=O)[C@H](CCCNC(=N)N)NC(=O)CNC(=O)CC[C@H](NC(=O)CCCCCCCCCCCCCCCCCCC(=O)O)C(=O)O)C(=O)N[C@@H](CC(N)=O)C(=O)N[C@@H]([C@@H](C)O)C(=O)N[C@@H](C)C(=O)N[C@@H]([C@@H](C)O)C(=O)N1)[C@@H](C)O)C(=O)N[C@@H](CC(C)C)C(=O)N1CCC[C@H]1C(=O)N1CCC[C@H]1C(=O)N[C@H](C(=O)N[C@@H](CC(N)=O)C(=O)N[C@H](C(=O)NCC(=O)N[C@@H](CO)C(=O)N[C@@H](CC(N)=O)C(=O)N[C@H](C(=O)N1CCC[C@H]1C(N)=O)[C@@H](C)O)C(C)C)[C@@H](C)O
B5: N-alpha-[(S)-4-Carboxy-4-(19-carboxynonadecanoylamino)butyryl]-[Arg1,Glu14,His17,Pro37]-pramlintide (peptide)
peptide: {C20 diacid-γGlu}-RCNTATCATQRLAEFLHHSSNNFGPILPPTNVGSNTP-NH2
modifications: disulfide 2-7
SMILES: CC[C@H](C)[C@H](NC(=O)[C@@H]1CCCN1C(=O)CNC(=O)[C@H](Cc1ccccc1)NC(=O)[C@H](CC(N)=O)NC(=O)[C@H](CC(N)=O)NC(=O)[C@H](CO)NC(=O)[C@H](CO)NC(=O)[C@H](Cc1c[nH]cn1)NC(=O)[C@H](Cc1c[nH]cn1)NC(=O)[C@H](CC(C)C)NC(=O)[C@H](Cc1ccccc1)NC(=O)[C@H](CCC(=O)O)NC(=O)[C@H](C)NC(=O)[C@H](CC(C)C)NC(=O)[C@H](CCCNC(=N)N)NC(=O)[C@H](CCC(N)=O)NC(=O)[C@@H](NC(=O)[C@H](C)NC(=O)[C@@H]1CSSC[C@H](NC(=O)[C@H](CCCNC(=N)N)NC(=O)CC[C@H](NC(=O)CCCCCCCCCCCCCCCCCCC(=O)O)C(=O)O)C(=O)N[C@@H](CC(N)=O)C(=O)N[C@@H]([C@@H](C)O)C(=O)N[C@@H](C)C(=O)N[C@@H]([C@@H](C)O)C(=O)N1)[C@@H](C)O)C(=O)N[C@@H](CC(C)C)C(=O)N1CCC[C@H]1C(=O)N1CCC[C@H]1C(=O)N[C@H](C(=O)N[C@@H](CC(N)=O)C(=O)N[C@H](C(=O)NCC(=O)N[C@@H](CO)C(=O)N[C@@H](CC(N)=O)C(=O)N[C@H](C(=O)N1CCC[C@H]1C(N)=O)[C@@H](C)O)C(C)C)[C@@H](C)O

Experiments:
Experiment in all cases: cell-based or functional assay
[1] = target: T1, human amylin 3(a) receptor (human …)
[2] = target: T2, human calcitonin (a) receptor
[3] = target: T3, rat amylin 3(a) receptor (rat …)
[4] = target: T4, rat calcitonin (a) receptor

| Binder | Amylin receptor human EC50 [1] [nM] | CTa receptor human EC50 [2] [nM] | Amylin receptor rat EC50 [3] [nM] | CTa receptor rat EC50 [4] [nM] |
| --- | --- | --- | --- | --- |
| B1 | 0.136 | 0.18 | 0.138 | 0.215 |
| B2 | 0.0255 | 0.0395 | 0.151 | 0.114 |
| B3 | 0.0325 | 0.0475 | 0.217 | 0.128 |
| B4 | 0.0515 | 0.0455 | 0.075 | 0.044 |
| B5 | 0.043 | 0.055 | 0.088 | 0.058 |
